Data reported in US20180291082A1 (IMMATICS BIOTECHNOLOGIES, published 2018).

What was measured:
[1] = target: T1, human recombinant HLA-B*08:01 (human); test: pMHC dissociation at 37 C (b2m on heavy chain); mean half-life grade (+ >2 h, ++ >4 h, +++ >6 h, ++++ >10 h)
T1 construct: Expressed in E. coli and purified; Assay done by ImmunAware
Description: The peptide-MHC stability for HLA-B*08:01 peptides was performed by ImmunAware (Copenhagen, Denmark). The data were obtained using a proximity based, homogenous, real-time assay to measure the dissociation of peptides from HLA class I molecules. First human recombinant HLA-B*08:01 and b2m were expressed in E. coli and purified in a series of liquid chromatography based steps (Ferre et al., 2003; Ostergaard et al., 2001). Afterwards, the stability of a peptide-MHC complex (pMHC) can be determined by measuring the amount of b2m associated with the MHC heavy chain over time at 37° C. (Harndahl et al., 2012). The stability of each pMHC, expressed as the half life of b2m associated with the respective heavy chain, was calculated by fitting the data to a one-phase dissociation equation.

HLA-A*02:01 = target: T2, HLA-A*02:01 (human); test: UV-ligand exchange, anti-b2m ELISA; exchange yield grade (+ >10%, ++ >20%, +++ >50, ++++ >75%)
T2 construct: Peptide-receptive MHC monomer made by UV cleavage of a UV-sensitive peptide
Summary of the method: (§1)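 UV-exchange products diluted 100-fold, captured on streptavidin-coated wells, 1 h 37 °C; HRP anti-β2m 2 ug/ml, 1 h 37 °C; TMB, A450. Standards: refolded HLA-A*02:01/MLA-001, 15-500 ng/ml. Yield = β2m signal of stabilised MHC.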

HLA-A*24:02 = target: T3, HLA-A*24:02 (human); test: as above
T3 construct: Peptide-receptive MHC monomer made by UV cleavage of a UV-sensitive peptide
Summary of the method: as §1

Binder	mean half-life (T1/2) of peptide-MHC complex [1] [h]	peptide exchange yield (HLA-A*02:01) [%]	other results
HAKEKLTAL	6 to 10	–	–
ALFPERITV	–	> 75	–
GLMTIVTSL	–	> 75	–
KYLSIPAVFF	–	–	peptide exchange yield (HLA-A*24:02): > 75%
KMILKMVQL	–	10 to 20	–
EPVKKSRL	6 to 10	–	–
KLLDEVTYL	–	50 to 75	–
GLTGVIMTI	–	> 75	–
KIDDIWNLEV	–	50 to 75	–
AAMSRYEL	4 to 6	–	–
ELMPRVYTL	–	50 to 75	–
ALAAELNQL	–	50 to 75	–
DLKYNALDL	6 to 10	–	–
TYLTGRQF	–	–	peptide exchange yield (HLA-A*24:02): 20 to 50%
PYASLASELF	–	–	peptide exchange yield (HLA-A*24:02): > 75%
EYNNIQHLF	–	–	peptide exchange yield (HLA-A*24:02): 50 to 75%
KLHEIYIQA	–	> 75	–
KYLSLSNSF	–	–	peptide exchange yield (HLA-A*24:02): > 75%
KMMALVAEL	–	> 75	–
GLPDFVKEL	–	> 75	–
FLNQIYTQL	–	> 75	–
EAKRHLLQV	4 to 6	–	–
FQKLKLLSL	2 to 4	–	–
HIFLRTTL	4 to 6	–	–
VIAPIISNF	–	–	peptide exchange yield (HLA-A*24:02): 50 to 75%
KYLSIPTVF	–	–	peptide exchange yield (HLA-A*24:02): > 75%
KYLSIPAVF	–	–	peptide exchange yield (HLA-A*24:02): > 75%

Further lines, with some results ahead:

mean half-life (T1/2) of peptide-MHC complex [1] [h]	peptide exchange yield (HLA-A*02:01) [%]	Binder	other results
–	50 to 75	RLASRPLLL	–
2 to 4	–	LPMLKVLNL	–
–	50 to 75	SLQDTKITL	–
4 to 6	–	YKKLRTSSF	–
–	> 75	VLITGLPLI	–
–	> 75	RLFGLFLNNV	–
4 to 6	–	LPFLRENDL	–
–	20 to 50	SQTGFVVLV	–
–	50 to 75	YVSSGEMMV	–
4 to 6	–	LLKAEPLAF	–
4 to 6	–	LSYNKYLQL	–
4 to 6	–	NPNLKTLL	–
–	50 to 75	YQDSWFQQL	–
–	50 to 75	LLMTSLTES	–
6 to 10	–	YVKERSKAM	–
–	> 75	VMLNSNVLL	–
–	50 to 75	RLWQIQHHL	–
–	> 75	YLPPTDPRMSV	–
–	> 75	YLLPSVVLL	–
